Reference: US20180318418A1 (UNIQUEST, published 2018)

Assays:
Test in all cases: dot blot, peptide on PVDF membrane
[1] = biological target: T1, peptide 06/08 (BARF1 104-120) (Epstein-Barr virus)
T1 construct: Spotted on PVDF membrane for dot blot; also called 06/08104-120
T1 peptide: CRMKLGETEVTKQEHLS

[2] = biological target: T2, peptide 08/08-2′ (Epstein-Barr virus)
T2 construct: 7-mer derived from 08/08′ (BARF1 28-38)
T2 peptide: TSYWRRV

[3] = biological target: T3, peptide 05/08 (BARF1 201-221) (Epstein-Barr virus)
T3 construct: Spotted on PVDF membrane for dot blot; also called 05/08201-221
T3 peptide: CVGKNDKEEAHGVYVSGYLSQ

[4] = biological target: T4, peptide 08/08-2 (Epstein-Barr virus)
T4 construct: 8-mer derived from 08/08 (BARF1 27-40)
T4 peptide: TSYWRRVS

Measured: binding result

B1: anti-BARF1 3D4 monoclonal antibody (antibody, V domains shown)
VH: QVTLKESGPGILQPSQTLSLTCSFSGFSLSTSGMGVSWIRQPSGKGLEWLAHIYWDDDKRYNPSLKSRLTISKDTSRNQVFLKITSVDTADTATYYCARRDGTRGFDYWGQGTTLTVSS
VL: QIVLTQSPAIMSASLGERVTMTCTATSSVSSSYLHWYQQKPGSSPKLWIYSTSNLASGVPARFSGSGSGTSYSLTISSMEAEDAATYYCHQYHRSPPWTFGGGTKLEIK
notes: also called 3D4 mAb; clone 3D4
no binding (tested: about 10 µg/spot): all assays above
